According to patent publication US20210130452A1 (Merck KGaA, published 2021):
“And” between values parts separate entries of the source, which are not always exact repeats. Equal entries are not always repeated. Where two headings read alike, the source gives them in different places. Blank lines part the entries; values can stand above or below the binder they belong to.

How the values were obtained:
human IL-17A [1] = molecular target: T1, human IL-17A (human, UniProt Q16552 24-155); experiment: SPR (Biacore) off-rate
T1 construct: secreted form made in Hek293 cells (GenBank U32659); also called hIL-17A; hIL17A

human IL-17F [2] = molecular target: T2, human IL-17F (human, UniProt Q96PD4 31-163); experiment: SPR (Biacore) off-rate
T2 construct: made in Hek293 cells (GenBank AF384857); also called hIL-17F; hIL17F
T2 sequence: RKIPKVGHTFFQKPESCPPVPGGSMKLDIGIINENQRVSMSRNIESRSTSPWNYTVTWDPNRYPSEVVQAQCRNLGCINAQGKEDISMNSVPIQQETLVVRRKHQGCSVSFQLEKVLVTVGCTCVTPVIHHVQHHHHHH

[3] = molecular target: T3, human IL-17A/F heterodimer (human, UniProt Q16552 24-155; Q96PD4 31-163, limits assumed); experiment: SPR (Biacore) off-rate
T3 construct: bought, made in E. coli (R&D Systems 5194-IL/CF); also called hIL-17A/F; hIL17A/F
Target sequence in this assay (Q16552 24-155 limits assumed, chain 1 of 2, one chain of several): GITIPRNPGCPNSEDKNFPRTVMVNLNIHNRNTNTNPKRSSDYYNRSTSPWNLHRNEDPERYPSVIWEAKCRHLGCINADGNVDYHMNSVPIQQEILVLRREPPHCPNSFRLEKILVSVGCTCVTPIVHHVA

human IL-17A [4] = molecular target: T1, human IL-17A; experiment: SPR (Biacore) off-rate; remark: listed apart in the source
human IL-17F [5] = molecular target: T2, human IL-17F; experiment: SPR (Biacore) off-rate; remark: listed apart in the source
[6] = molecular target: T3, human IL-17A/F heterodimer; experiment: SPR (Biacore) off-rate; remark: listed apart in the source
Target sequence in this assay (Q16552 24-155 limits assumed, one chain of several): as the sequence (Q16552 24-155 limits assumed, chain 1 of 2, one chain of several) above

Cynomolgus monkey IL-17A [7] = molecular target: T4, Cynomolgus monkey IL-17A (Cynomolgus monkey, UniProt A0A2K5TTB0 24-155); experiment: SPR (Biacore) off-rate
T4 construct: also called cyno IL-17A; cIL-17A

Cynomolgus monkey IL-17F [8] = molecular target: T5, Cynomolgus monkey IL-17F (Cynomolgus monkey, UniProt G7P4V0 31-163); experiment: SPR (Biacore) off-rate
T5 construct: also called cyno IL-17F; cIL-17F
T5 sequence: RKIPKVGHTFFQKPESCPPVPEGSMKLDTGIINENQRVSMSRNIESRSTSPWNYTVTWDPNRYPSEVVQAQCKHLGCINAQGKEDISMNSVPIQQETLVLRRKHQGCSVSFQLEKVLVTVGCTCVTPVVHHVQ

human IL-17A [9] = molecular target: T1, human IL-17A; experiment: cell-based or functional assay
human IL-17F [10] = molecular target: T2, human IL-17F; experiment: cell-based or functional assay
[11] = molecular target: T3, human IL-17A/F heterodimer; experiment: cell-based or functional assay
Target sequence in this assay (Q16552 24-155 limits assumed, one chain of several): as the sequence (Q16552 24-155 limits assumed, chain 1 of 2, one chain of several) above

Cynomolgus monkey IL-17F [12] = molecular target: T5, Cynomolgus monkey IL-17F; experiment: cell-based or functional assay
human IL-17A [13] = molecular target: T1, human IL-17A; experiment: AlphaScreen hIL-17A-IL-17RA; reference itself
human IL-17F [14] = molecular target: T2, human IL-17F; experiment: AlphaScreen hIL-17F-IL-17RC; reference itself
human IL-17A [15] = molecular target: T1, human IL-17A; experiment: AlphaScreen hIL-17A-IL-17RA; reference itself; remark: listed apart in the source
human IL-17F [16] = molecular target: T2, human IL-17F; experiment: AlphaScreen hIL-17F-IL-17RC; reference itself; remark: listed apart in the source
human IL-17A [17] = molecular target: T1, human IL-17A; experiment: AlphaScreen hIL-17A-IL-17RA; vs IL17MS13E02
human IL-17F [18] = molecular target: T2, human IL-17F; experiment: AlphaScreen hIL-17F-IL-17RC; vs IL17MS13E02
human IL-17A [19] = molecular target: T1, human IL-17A; experiment: SPR (Biacore) off-rate; remark: listed apart in the source
human IL-17F [20] = molecular target: T2, human IL-17F; experiment: SPR (Biacore) off-rate; remark: listed apart in the source
[21] = molecular target: T3, human IL-17A/F heterodimer; experiment: SPR (Biacore) off-rate; remark: listed apart in the source
Target sequence in this assay (Q16552 24-155 limits assumed, one chain of several): as the sequence (Q16552 24-155 limits assumed, chain 1 of 2, one chain of several) above

human IL-17A [22] = molecular target: T1, human IL-17A; experiment: SPR (Biacore) off-rate; remark: listed apart in the source
human IL-17F [23] = molecular target: T2, human IL-17F; experiment: SPR (Biacore) off-rate; remark: listed apart in the source
[24] = molecular target: T3, human IL-17A/F heterodimer; experiment: SPR (Biacore) off-rate; remark: listed apart in the source
Target sequence in this assay (Q16552 24-155 limits assumed, one chain of several): as the sequence (Q16552 24-155 limits assumed, chain 1 of 2, one chain of several) above

Cynomolgus monkey IL-17A [25] = molecular target: T4, Cynomolgus monkey IL-17A; experiment: SPR (Biacore) off-rate; remark: listed apart in the source
Cynomolgus monkey IL-17F [26] = molecular target: T5, Cynomolgus monkey IL-17F; experiment: SPR (Biacore) off-rate; remark: listed apart in the source
human IL-17A [27] = molecular target: T1, human IL-17A; experiment: cell-based or functional assay; remark: listed apart in the source
human IL-17F [28] = molecular target: T2, human IL-17F; experiment: cell-based or functional assay; remark: listed apart in the source
[29] = molecular target: T3, human IL-17A/F heterodimer; experiment: cell-based or functional assay; remark: listed apart in the source
Target sequence in this assay (Q16552 24-155 limits assumed, one chain of several): as the sequence (Q16552 24-155 limits assumed, chain 1 of 2, one chain of several) above

Cynomolgus monkey IL-17F [30] = molecular target: T5, Cynomolgus monkey IL-17F; experiment: cell-based or functional assay; remark: listed apart in the source
human IL-17A [31] = molecular target: T1, human IL-17A; experiment: AlphaScreen hIL-17A-IL-17RA; reference itself; remark: listed apart in the source
human IL-17F [32] = molecular target: T2, human IL-17F; experiment: AlphaScreen hIL-17F-IL-17RC; reference itself; remark: listed apart in the source
human IL-17A [33] = molecular target: T1, human IL-17A; experiment: AlphaScreen hIL-17A-IL-17RA; reference itself; remark: listed apart in the source
human IL-17F [34] = molecular target: T2, human IL-17F; experiment: AlphaScreen hIL-17F-IL-17RC; reference itself; remark: listed apart in the source
human IL-17F [35] = molecular target: T2, human IL-17F; experiment: SPR (Biacore) off-rate; remark: listed apart in the source
[36] = molecular target: T3, human IL-17A/F heterodimer; experiment: SPR (Biacore) off-rate; remark: listed apart in the source
Target sequence in this assay (Q16552 24-155 limits assumed, chain 1 of 2, one chain of several): as the sequence (Q16552 24-155 limits assumed, chain 1 of 2, one chain of several) above

human IL-17F [37] = molecular target: T2, human IL-17F; experiment: SPR (Biacore) off-rate; remark: listed apart in the source
[38] = molecular target: T3, human IL-17A/F heterodimer; experiment: SPR (Biacore) off-rate; remark: listed apart in the source
Target sequence in this assay (Q16552 24-155 limits assumed, one chain of several): as the sequence (Q16552 24-155 limits assumed, chain 1 of 2, one chain of several) above

Cynomolgus monkey IL-17F [39] = molecular target: T5, Cynomolgus monkey IL-17F; experiment: SPR (Biacore) off-rate; remark: listed apart in the source
human IL-17F [40] = molecular target: T2, human IL-17F; experiment: cell-based or functional assay; remark: listed apart in the source
[41] = molecular target: T3, human IL-17A/F heterodimer; experiment: cell-based or functional assay; remark: listed apart in the source
Cynomolgus monkey IL-17F [42] = molecular target: T5, Cynomolgus monkey IL-17F; experiment: cell-based or functional assay; remark: listed apart in the source
human IL-17F [43] = molecular target: T2, human IL-17F; experiment: AlphaScreen IL-17F-IL-17RC; reference itself
human IL-17F [44] = molecular target: T2, human IL-17F; experiment: AlphaScreen IL-17F-IL-17RC; reference itself; remark: listed apart in the source

T1 sequence (Q16552 other isoform, or with tags, fused parts or gaps): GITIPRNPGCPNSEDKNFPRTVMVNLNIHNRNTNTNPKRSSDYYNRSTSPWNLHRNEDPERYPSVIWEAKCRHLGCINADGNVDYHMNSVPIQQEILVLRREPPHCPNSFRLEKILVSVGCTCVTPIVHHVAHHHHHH
T4 sequence (A0A2K5TTB0 entry or part of it): as the sequence (Q16552 24-155 limits assumed, chain 1 of 2, one chain of several) above, with T3A, P8S, N34S, I77V, N78K, P104R counted along it

koff (human IL-17A [1]): 0.000114 s⁻¹
koff (human IL-17F [2]): 0.00223 s⁻¹
koff [3]: 3.97e-05 s⁻¹
koff (human IL-17A [4]): 0.000114 s⁻¹
koff (human IL-17F [5]): 0.00223 s⁻¹
koff [6]: 3.97e-05 s⁻¹
koff (Cynomolgus monkey IL-17A [7]): 0.000103 s⁻¹
koff (Cynomolgus monkey IL-17F [8]): 0.046 s⁻¹
IC50 cell based assay hIL-17A (human IL-17A [9]): 1.73 nM
IC50 cell based assay hIL-17F (human IL-17F [10]): 44 nM
IC50 cell based assay hIL-17A/F [11]: 1.99 nM
IC50 cell based assay cyno IL-17F (Cynomolgus monkey IL-17F [12]): 35 nM
IC50 fold difference vs WT (human IL-17A [13]): 1 fold
IC50 fold difference vs WT (human IL-17F [14]): 1 fold
IC50 fold difference vs WT (human IL-17A [15]): 1 fold
IC50 fold difference vs WT (human IL-17F [16]): 1 fold
B1: IL17MS13E02 (VHH)
VHH: EVQLVESGGGLVQAGGSLRLSCAASGRTYDAMGWLRQAPGKEREFVAAISGSGDDTYYADSVKGRFTISKDNAGITMYLQMNSLKPEDTAVYYCATRRGLYYVWDSNDYENWGQGTQVTVSS
notes: Class 4 Nanobody, wild type; also called WT

IC50 cell based assay hIL-17A (human IL-17A [9]): 0.77 nM
IC50 cell based assay hIL-17F (human IL-17F [10]): 27 nM
IC50 cell based assay hIL-17A/F [11]: 3.5 nM
IC50 cell based assay cyno IL-17F (Cynomolgus monkey IL-17F [12]): 25.2 nM
IC50 fold difference vs WT (human IL-17A [17]): 0.59 fold
IC50 fold difference vs WT (human IL-17F [18]): 0.3 fold
B2: IL17MS3072 (VHH)
VHH: DVQLVESGGGLVQPGGSLRLSCAASGRTYDALGWLRQAPGKEREFVAAISGSGDDTYYADSVKGRFTISRDNSKNTLYLQMNSLRPEDTAVYYCATRRGLYYVWDANDYENWGQGTLVTVSS
notes: variant of IL17MS13E02; Kabat numbering

koff (human IL-17A [19]): 0.000131 s⁻¹ and 0.000208 s⁻¹
koff (human IL-17F [20]): 0.00792 s⁻¹
koff [21]: 6.21e-05 to 0.000125 s⁻¹
koff (human IL-17A [22]): 0.000131 s⁻¹ and 0.000208 s⁻¹
koff (human IL-17F [23]): 0.00792 s⁻¹
koff [24]: 6.21e-05 to 0.000125 s⁻¹
koff (Cynomolgus monkey IL-17A [25]): 0.000114 s⁻¹
koff (Cynomolgus monkey IL-17F [26]): 0.00469 s⁻¹
IC50 cell based assay hIL17A (human IL-17A [27]): 1.34 nM
IC50 cell based assay hIL17F (human IL-17F [28]): 35 nM
IC50 cell based assay hIL17A/F [29]: 4.32 nM
IC50 cell based assay cyno IL17F (Cynomolgus monkey IL-17F [30]): 29 nM
IC50 fold difference compared to WT (human IL-17A [31]): 1 fold
IC50 fold difference compared to WT (human IL-17F [32]): 1 fold
IC50 fold difference compared to WT (human IL-17A [33]): 1 fold
IC50 fold difference compared to WT (human IL-17F [34]): 1 fold
B3: IL17MS13B03 (VHH)
VHH: EVQLVESGGGSVQAGDSLRLSCAASGRANSINWFGWFRQTPGKEREFVAGIRWSDAYTEYANSVKGRFTISRDNAKNTVDLQMDSLKPEDTAVYYCVLDLSTVRYWGQGTQVTVSS
notes: as for B1

koff (human IL-17F [35]): 0.000405 s⁻¹
koff [36]: 0.0024 s⁻¹
koff (human IL-17F [37]): 0.000382 s⁻¹ and 0.00041 s⁻¹
koff [38]: 0.00239 s⁻¹ and 0.0025 s⁻¹
koff (Cynomolgus monkey IL-17F [39]): 0.000636 s⁻¹
IC50 cell based assay hIL-17F (human IL-17F [40]): 28 nM
IC50 cell based assay hIL-17A/F [41]: 8 nM
IC50 cell based assay cyno IL-17F (Cynomolgus monkey IL-17F [42]): 7.3 nM
IC50 fold difference vs WT (human IL-17F [43]): 1 fold
IC50 fold difference vs WT (human IL-17F [44]): 1 fold
B4: IL17MS16A04 (VHH)
VHH: EVQLVESGGGLVQAGGSLRLSCAASGRTFSSYVVGWFRQAPGKEREFIGAISGSGDSIYYAVSEKDRFTISRDNGKNTLYLQMSSLKAEDTAVYYCTADQEFGYLRFGRSEYWGQGTQVTVSS
notes: Class 3 Nanobody, wild type; also called WT
